# In the DeepSol protein solubility set:
# Assay: soluble on expression in E. coli; label from the status in PepcDB or PDB records
row,Sequence,soluble on expression in E. coli
1,MHHHHHHSSGLVPRGSGMKETAAAKFERQHMDSPDLGTDDDDKAMAGTPSKPAEPIGPVFTKLKPWQIPKRDWFDKDFLFGASTSAYQIEGAWNEDGKGPSTWDHFCHTYPERISDMTNGDVAANSYHLYEEDVKALKDMGMKVYRFSISWSRILPDGTGKVNQAGIDYYNKLINSLIDNDIVPYVTIWHWDTPQALEDKYGGFLNRQIVDDYKQFAEVCFKNFGDRVKNWFTFNEPHTYCCFSYGEGIHAPGRCSPGMDCAVPEGDSLREPYTAGHHILLAHAEAVQLFKARYNMHGDSKIGMAFDVMGYEPYQDSFLDDQARERSIDYNMGWFLEPVVRGDYPFSMRSLIGDRLPMFTKEEQEKLASSCDIMGLNYYTSRFSKHVDMSPDFTPTLNTDDAYASSETTGSDGNDIGPITGTYWIYMYPKGLTDLLLIMKEKYGNPPVFITENGIADVEGDESMPDPLDDWKRLDYLQRHISAVKDAIDQGADVRGHFTWGLIDNFEWSLGYSSRFGLVYIDKNDGNKRKLKKSAKWFSKFNSVPKPLLKTTNNNATMTAASVSV,soluble
2,MNKQLTTIGIMASLFATSSFATDWTQIEKEAQGQTVYFHAWGGSQEINHYLQWANKELQSKYQVTLKHVKVSDISETIPRLIAEKAADKNTNGSVDMVWINGENFKSMKDNQLLFGPFTENLPSWKYVDKMLPIDVDFSEPTDGLEAPWGVGQLVFIHDSENLTNPPHSFAEMLSYAQKKPNSLSYPRPPEFHGTSVLKSMLIELTNNNPALQKPVSESDFNAVTAPLWDYLEKFHKVAWRGGKQFPAGTSETIQLLDDGQLDLAVTFNPNAVYSAQANGNLANTTKAYAMDSGALSNIHFLAIPWNAKASAGAQVAINFLLSPEAQSRKGDLNVWGDPSVLSSKYLTGSAKNTQQFKSVSEPHPSWQAAIEKEWLKRFGS,soluble
3,MSLSVSDELQLFAQEIQRFLSPNTLRNLARDVGFVQRTSKYQAKDLVALCVWMNQNIATTSLTQLSSCLEASTEVLISPEGLNQRFNKAAVQFLQHILAELLSRKLTSSIPISSPYTSVFKRIRILDSTAFQLPDVFSSVYPGAGGCSHTAGIKIQLEYDLLSGQFLHIHTGPGKQHDRTYGSLCAPTVTANDLCIRDLGYFHLKDLQYIQDKEAYYISRIKSNTRMYQKNPNPDYFQDGRIKKGTEYIQIDIETLMNSLQPGQTCEVADAYVGMNDKVPARVIVHRLTKQQQQKRLQDQAVREKKKGMKYSPRSKRLSGINVYMTNTPTDIVPMGQVHDWYSLRWQIEILFKTWKSFFQIHHCKKIKAERLECHLYGQLIAILLCSSIMFQMRQLLLMKKKRELSEYKAIYMIKDYFLLLFQTIQKNTQELSKVLLRLFNLLQQNGRKSHRYEKKTVFDILGVVYNSMSDNQAEGHHHHHH,not soluble
4,MTKSQKQTKQYLRIFDQQMSLYEHYARKNSLQSKSLFILLWLYYNPQGITQKQIVEKTYSTKQVVNATLKRWNEKNYIVFLKSQTDRREKKIILSSQGQEYAASIIAPLEKMEEAAFNSLSIQEQQTMIQLTGHYYQALLSQMQLYFVQGEGEKATKEKL,not soluble
5,MEEQNNNQLQIELKEEVAQGTYANLAIITHSSSEFILDFVRVMPGVPKAGVQSRIIVAPEHAKRLLRALEDNIAKYERAFGPIRISEESPMPPLSVVKGEA,not soluble
6,MSLTELYAKSDLEKIKETLPGWQLDSFNYLNEKIGDKENKFPCIPGRQAFLSDQLRIAFVGDPRNPETAKELAPLLTRYGTISRETGKYASLTVIFHTPEELLTDYKIEDYESLFWQLLNSLSMEDPADWPDDIPENPDNFQWEYCFNGEPYFVLCATPAHSKRKSRSFPYFMLTFQPRWVFEDLNDTTAFGRNMSKQIRKRLEAYDEVPIHPHLGWYGKKDNLEWKQYFLRDDENQVSQCPFMKMKNLFKKERSDEGHHHHHH,soluble
7,KEDYDRRSGKVSEPAPQATEEEDKVEVEPEDNGISSVADMSDGKESIAPKGHAVKPDEGAHSAKKTYKIQILSSTTKLKNGDKRLKGYKVVIEQRGGRFFYLTGAVSSEDEARHLRKKVRKSFPDAYIVVYEAGKRVREIY,not soluble
8,MTSTRHHRGARRALRHLTTTTAHARRAFSPADLRQLEAAVREGERRHRGEVRIVIEASLPVRDAWAGVTPRQRARTLFGLLEVWNTHEHVGVLLYLNLADHAVEILADRGIAARVEPHAWRAICETITHGFAQGVAIGPVLEALGQIHAVLAAHFPSDGAPRANELADKPLVLLEHHHHHH,soluble
9,MLNYLFENNCLLCGKEVSPLRSLCENCEEKVLKNGPSFYREVHRKYELFVYSDYTDEIERIIRLYKYHGEVSLSGTLVKLFLKLYSYFPREANLITWVPSSLDSLEDRGFDHMRLLAKRISKELGIPFDAVLENVSEGRQVEKSKEERKRTGRFICKKDPPQNVILIDDVLTTGTSVRDCVETLFRNGVSKVFVYVLAKTRR,not soluble
10,MSLQGPNPIITVYSTQDYPILHAELASQVYLMDQVEQWENMISQRLSANPSVAAQQASQIFQSAEWKQSEEQLKRSYQGLISGWQNGIKKVPAVLFQYPGKEDSVIYGETNIAQALSLWQREITKEGTREGHHHHHH,soluble
11,MHNSSSSTIGKPLIPQKLPEFLNAYENFIIAGHKEPDGDCIGSCLAMSFFLKRKNKNCILMSAGPFKRTEIKEYEHLFTDKLKISDKINPKTTGLIILDCSNFDRVGEIAELISGFNYIIIDHHATNTEKSDTSLIMPEAPSTTYLIQSIIEEIGEKLTKEEADALFFGLCTDTGFFRHLDAGSAEVFAHASRLIEAGANPKQTFMKINGGKKFESRLLISRILNRMKTYYDGRLVVSYETYDDLLEFGLESRDSDILYQLIQSIEGVEAICIVRQDSPSHCSVGFRSLDKIDVSKIAASFGGGGHKQASGLYIEGKFDDLIPRFVEAFGTQMLEHHHHHH,soluble
12,MSVTVKRIIDNTVIVPKLPANEDPVEYPADYFRKSKEIPLYINTTKSLSDLRGYVYQGLKSGNVSIIHVNSYLYGALKDIRGKLDKDWSSFGINIGKAGDTIGIFDLVSLKALDGVLPDGVSDASRTSADDKWLPLYLLGLYRVGRTQMPEYRKKLMDGLTNQCKMINEQFEPLVPEGRDIFDVWGNDSNYTKIVAAVDMFFHMFKKHECASFRYGTIVSRFKDCAALATFGHLCKITGMSTEDVTTWILNREVADEMVQMMLPGQEIDKADSYMPYLIDFGLSSKSPYSSVKNPAFHFWGQLTALLLRSTRARNARQPDDIEYTSLTTAGLLYAYAVGSSADLAQQFCVGDNKYTPDDSTGGLTTNAPPQGRDVVEWLGWFEDQNRKPTPDMMQYAKRAVMSLQGLREKTIGKYAKSEFDK,soluble
13,MSLRIEEIRRYHESLMVELDRIYRIAEAARKKGLDPELSVEIPIAKNMAERVEKLMNLQGLAKRIMELEEGGLSRELICFKVADEIVEGKFGEMPKEEAIDKAVRTAVAIMTEGVVAAPIEGIARVRIDRENFLRVYYAGPIRSAGGTAQVISVLVADYVRRKAEIGRYVPTEEEILRYCEEIPLYKKVANLQYLPSDEEIRLIVSNCPICIDGEPTESAEVSGYRNLPRVETNRVRGGMALVIAEGIALKAPKLKKMVDEVGIEGWEWLDALIKGEGHHHHHH,soluble
14,MKIKSIRKAVLLLALLTSTSFAAGKNVNVEFRKGHSSAQYSGEIKGYDYDTYTFYAKKGQKVHVSISNEGADTYLFGPGIDDSVDLSRYSPELDSHGQYSLPASGKYELRVLQTRNDARKNKTKKYNVDIQIK,soluble
15,MSLRPGIKALAEATGYSIATVSKALNGSPMVAPATKALIHRAAADIGYRANARGMALRTGRTCQAAVLMPVTAARDYEWDGVEYTQILSGISQALEGSDYRMSVHVVRNVEDGCEVARRIIDEGLADGLIFSGIRADDPRIDLLDESRFPFVSLGRCRKPLDYAHVDIDNEWAAHAATARLIAGGHRRIALVNPLRHLSYAEDRVDGFLRAFREANLSPSDDLIAEGDLSTHFGRESALGLLDAARPPTAFVCSNESTTLGVLSGLGSRGRRIGVDVDVVAYDDINVSAYFTPPITTFYQPIEVLGRTLGEFLLRRMAGEDARSLKQVFRPRLIERQPDSLGGREGHHHHHH,soluble
16,MAIETEDIKYEESFIKNTRGFKLFTCRWLPTNREPRALVFLCHGYGMECSITMNSTARRLVKAGFAVYGMDYEGHGKSDGLSAYISNFDRLVDDVSTHYTAICEREENKWKMRFMLGESMGGAVVLLLGRKNPDFWDGAILVAPMCKIAEEMKPSPFVISILTKLISIIPKWKIIPSQDIIEISYKEPEIRKQVRENPLCSKGRPRLKTAYELLRISNDLEKRLQEVSLPFLVLHGDDDKVTDKAVSQELYKVALSADKTLKLYPGMWHGLLTGETPENIEIVFADVISWLEKRSDYGNDRFESELKQRNDRLNFKK,soluble
17,MAYWLVKSEPSVWSWDQQVAKGAAGEAWTGVRNHSAKLHMVAMRRGDRAFYYHSNEGKEIVGIAEIIREAYPDPTDASGKFVCVDIKADKPLKTPVTLAAVKAEPRLADMALMKYSRLSVQPVTAEEWKLVCKMGGLLEHHHHHH,not soluble
18,SLKIYRSTLLHTPASPFAVPDALQTFSDGALAVGDTGTIAHLGTFTEVLAEVRAACPDAEVHDLRGGVLLPGFIDTHVHYPQVRVLGGLGMALLEWLDRNTLPEEARLADAAYARTIAGEFLHGLASHGTTTALVFGSHFAGAMDEFFAEAAARGLRVVAGQVVSDRLLRPELHTTPERAYAEGKALIERWHGQGRSLYAVTPRFSLSASEGILDACAALLTEFPDVRFTSHINENNQEIEVVRGLFPGARDYLDTYERAGLVTPRSVFAHNVHPNERELGVLAAQRCSVAHCPCSNSALGSGLFPLRRHLAAGVHVALGTDVGGGTGFSLLKEGLQAYFMQQLLGEEGAALSPAHLLYLATLAGAQALGLDGQVGDFTPGKQFDAVWLRPRAGSTLATVLAHAESEERTLAALFALGTGDDVERVWVGGGVVFAREAEA,soluble
19,MNIGIIGTGNMGNILIDAFLETRAVKPSCLTIINRTPAKAYHIKEKYPSVHIAKTIPEVIEQSQLIFICVKPIDIYPILKKYAEHFSDETCLVSITSPISPSQLETLVPCHVARIIPSITNRALSGASLFTFGDNCSEEWQQKLLRLFKNISTPLVIEEDITRVSSDIASCGPAFFSYLLQCFINAAVDKTNITHEEATTLVSEMVVGMGKLLEKEIFTLPTLQEKVCVKGGVTGEGIRVLEEHVGDMFHKLIERTHEKFDEDLECVDQQFNKHTLEHHHHHH,soluble
20,MSLEEFVKTGKTVCILINKQGRIYYSNIGKDVAEKCLEDIHIFDHLPADGTVSYNVGYYTVTADTVDLDEAHYYLILIQPQGNLYKYAYRDSFTGLYNRNYWEQLISGKMHRPIPKRFTLIVIDVDNLKSLNDNRGHLAGDKAIRIVGKSIRESIRKQDIAVRYGGDEFFILLANTKKAIVEKVINRVKENIRKRGKEENIHIEISVGMACSNSINKLEKVITMADYNMYKEKREKKVQVKHIGEGHHHHHH,not soluble
21,MLMTIDISEESLAKESADLLKILLKDRTTKKSIVWATHSYELLGKGFAPSDRINPSKVTGNFANLIQPRSEKSKYEQKDRTKIRAEVFTPTWLVAKQNGYVESKLGSLSLEEYVDLRWLEVTCGEAPYMVTRYDTVTGEEIPLSERVGFVDRKLQRISREVSDEVTFYKLVKDAYHASYGYEYQGDSLLLARENLLATFEDYYLAKTGNQPTLEQKKEIATIISYNVFQMDGLKKSSPYSAKQKQSQQLSLFADELEVQEVEESKTHIKDWKKNRMIGFERLSSEESEMKFDVVIGNPPYQETGEARDEPIYHYFIDEAYKIADKSILITPARFLFKAGQTPKNWMEKMLEDKHLKVQFYELKSGKVFTGTDIKGGVAITYRDVDKDLGPIGVFTIFETLNGIVKKIEKHPEFETFSDLVYPQGIYRFSNKLFSDYPNAEKLQGKGTKNKIVSKSLTQLDFVFKNNEEKDHVALLGRIGSERVYRYINKKYLDLPETFENYNVFVPEANGSGALGEVLSTPLIGEPLIGHTDTFLSIGNFKTKFEADACIKFIKTKFARVLLGVLKVTQHNSRKTWYYVPLQDFTVNSDIDWTQSVTDIDRQLDQKYDLSPEEIAFIENHVREMD,not soluble
